These results are taken from the supplement of paper PMC10567573.

B1: NECAB1 (parent)
chain: NLDTEELCEYFSQHLGEYENVLAA
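Note: lentivirally expressed fusions sorted by FACS into six bins by GFP to DsRed ratio, PSI derived from sequencing read proportions per bin multiplied by bin number.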

Variants of B1 are the subject of this data set. The data set is described as follows: protein stability index of a GFP-peptide fusion (GPS, HEK-293T) (PSI 1-6); higher = more stable. The note with it: c terminus: a fixed tail appended.
On to NLDTEELCEYFSQHLGEYEKVLAA [N20K], for which the protein stability index worked out at 1.94. The result for NLDTEELCEYFSQHLGEYEGVLAA [N20G] reads 3.22; that for NLDTEELCEYFSQHLGEYERVLAA [N20R], 2.25; that for NLDTEELCEYFSQHLGEYEDVLAA [N20D], 2.71. The value for NLDTEELCEYFSQHHGEYENVLAA [L15H] was 3.91; that for NLDTEELCEYFSQHSGEYENVLAA [L15S] was 3.47; that for NLDTEELCEYFSQHFGEYENVLAA [L15F] was 2.94. On to NLDTEELCEYFSQHVGEYENVLAA [L15V], for which the protein stability index was determined as 2.04. On to NLDTEELCEYFSQHWGEYENVLAA [L15W], for which the protein stability index stood at 2.65. Turning to NLDTEELCEYFSQHPGEYENVLAA [L15P], the protein stability index turned out to be 4.55.

On to NLDTEELCEYFSQHGGEYENVLAA [L15G], for which the protein stability index is 4.38.

Regarding NLDTEELCEYFSQHTGEYENVLAA [L15T], the protein stability index is 3.28.

Regarding NLDTEELCEYFSQHLGEYENVLAD [A24D], the protein stability index amounted to 3.98.

With NLDTEELCEYFSQHLGEYENVLAF [A24F], the protein stability index is 2.02. Turning to NLDTEELCEYFSQHLGEYENVLAY [A24Y], the protein stability index came out at 2.59.

For the variant NLDTEELCEYFSQHLGEYENVLAC [A24C], the protein stability index turned out to be 2.25. The result for NLDTEELCEYFSQHLGEYENVLAK [A24K] reads 2.69; that for NLDTEELCEYFSQHLGEYENVLAE [A24E], 3.53; that for NLDTEELCEYFSQQLGEYENVLAA [H14Q], 3.35. With NLDTEELCEYFSQDLGEYENVLAA [H14D], the protein stability index was found to be 3.86. The result for NLDTEELCEYFSQILGEYENVLAA [H14I] reads 1.87; that for NLDTEELCEYFSQSLGEYENVLAA [H14S], 3.81. The value for NLDTEELCEYFSQELGEYENVLAA [H14E] was 4.47. The value for NLDTEELCEYFSQALGEYENVLAA [H14A] was 3.31. Regarding NLDTEELCEYFSQLLGEYENVLAA [H14L], the protein stability index is 2.09. The value for NLDTEELCEYFSQYLGEYENVLAA [H14Y] was 2.19; that for NLDTEELCEYFSQFLGEYENVLAA [H14F] was 2.02; that for NLDTEELCEYFSQHLGEYENPLAA [V21P] was 4.46. The value for NLDTEELCEYFSQHLGEYENCLAA [V21C] was 3.01; that for NLDTEELCEYFSQHLGEYENKLAA [V21K] was 2.07.

Consider NLDTEELCEYFSQHLGEYENTLAA [V21T], for which the protein stability index was found to be 3.43.

Turning to NLDTEELCEYFSQHLGEYENELAA [V21E], the protein stability index was found to be 4.2. The value for NLDTEELCEYFSQHLGEYENYLAA [V21Y] was 1.98; that for NLDTEELCEYFSQHLGEYENILAA [V21I] was 1.83; that for NLDTEELCEYFSQHLGEYENALAA [V21A] was 2.9. The value for NLDTEEGCEYFSQHLGEYENVLAA [L7G] was 4.79; that for NLDTEEKCEYFSQHLGEYENVLAA [L7K] was 4.7; that for NLDTEETCEYFSQHLGEYENVLAA [L7T] was 4.42.

In the case of NLDTEERCEYFSQHLGEYENVLAA [L7R], the protein stability index was found to be 4.49. For the variant NLDTEEECEYFSQHLGEYENVLAA [L7E], the protein stability index turned out to be 4.77. The result for NLDTEEPCEYFSQHLGEYENVLAA [L7P] reads 4.29. Consider NLDTEEVCEYFSQHLGEYENVLAA [L7V], for which the protein stability index was determined as 4.59. With NLDTEEDCEYFSQHLGEYENVLAA [L7D], the protein stability index worked out at 4.92. Regarding NLDTEEACEYFSQHLGEYENVLAA [L7A], the protein stability index came to 4.43. The value for NLDTEELCEYFSQHLGEYENVLDA [A23D] was 4.52; that for NLDTEELCEYFSQHLGEYENVLEA [A23E] was 4.5. The result for NLDTEELCEYFSQHLGEYENVLSA [A23S] reads 2.23; that for NLDTEELCEYFSQHLGEYENVLQA [A23Q], 3.68; that for NLDTEELCEYFSQHLGEYENVLVA [A23V], 2.21. The result for NLDTEELCEYFSQHLGEYENVLKA [A23K] reads 2.17; that for NLDTEALCEYFSQHLGEYENVLAA [E6A], 2.27; that for NLDTEYLCEYFSQHLGEYENVLAA [E6Y], 2.46. For the variant NLDTELLCEYFSQHLGEYENVLAA [E6L], the protein stability index was found to be 1.74.

For NLDTEKLCEYFSQHLGEYENVLAA [E6K], the protein stability index stood at 2.08.

NLDTETLCEYFSQHLGEYENVLAA [E6T]: the protein stability index was 2.34. The value for NLDTEWLCEYFSQHLGEYENVLAA [E6W] was 2.23; that for NLDTEHLCEYFSQHLGEYENVLAA [E6H] was 2. The result for NLDTEGLCEYFSQHLGEYENVLAA [E6G] reads 1.81; that for QLDTEELCEYFSQHLGEYENVLAA [N1Q], 3.41. The result for GLDTEELCEYFSQHLGEYENVLAA [N1G] reads 3.68. As to FLDTEELCEYFSQHLGEYENVLAA [N1F], the protein stability index was 1.68.

Turning to DLDTEELCEYFSQHLGEYENVLAA [N1D], the protein stability index amounted to 1.87. Regarding SLDTEELCEYFSQHLGEYENVLAA [N1S], the protein stability index is 3.93.

Regarding RLDTEELCEYFSQHLGEYENVLAA [N1R], the protein stability index amounted to 3.54. The result for YLDTEELCEYFSQHLGEYENVLAA [N1Y] reads 1.83.

For NLDLEELCEYFSQHLGEYENVLAA [T4L], the protein stability index was 2.15. The result for NLDAEELCEYFSQHLGEYENVLAA [T4A] reads 2.75. The value for NLDEEELCEYFSQHLGEYENVLAA [T4E] was 4.15; that for NLDIEELCEYFSQHLGEYENVLAA [T4I] was 2.41; that for NLDSEELCEYFSQHLGEYENVLAA [T4S] was 3.32.

Consider NLDYEELCEYFSQHLGEYENVLAA [T4Y], for which the protein stability index is 2.97. With NLDTEELCEYFSQHLCEYENVLAA [G16C], the protein stability index came to 1.88. The value for NLDTEELCEYFSQHLWEYENVLAA [G16W] was 2.29. As to NLDTEELCEYFSQHLPEYENVLAA [G16P], the protein stability index came to 2.03. For the variant NLDTEELCEYFSQHLLEYENVLAA [G16L], the protein stability index stood at 1.9. The value for NLDTEELCEYFSQHLDEYENVLAA [G16D] was 2.29.

With NLDTEELCEYFSQHLTEYENVLAA [G16T], the protein stability index was determined as 2.04. In the case of NLDTEELCEYFSQHLEEYENVLAA [G16E], the protein stability index was 2.04. Turning to NLDTEELCEYFSQHLQEYENVLAA [G16Q], the protein stability index stood at 2.71. NLDTEELCEYFSQHLHEYENVLAA [G16H]: the protein stability index is 1.48. The result for NDDTEELCEYFSQHLGEYENVLAA [L2D] reads 4.72. The result for NHDTEELCEYFSQHLGEYENVLAA [L2H] reads 3.52.

On to NYDTEELCEYFSQHLGEYENVLAA [L2Y], for which the protein stability index worked out at 2.78. The value for NFDTEELCEYFSQHLGEYENVLAA [L2F] was 3.05.
